According to patent publication US20240400708A1:
Substitutions are numbered along the chain they refer to. Names may count otherwise. Blank lines part the entries; values can stand above or below the molecule they belong to.

Key:
[1] = target: feline FcRn complex (FcRn-α subunit and β-microglobulin), biotin labeled (feline); experiment: SPR, pH 6
[2] = target: feline FcRn complex (FcRn-α subunit and β-microglobulin), biotin labeled (feline); experiment: SPR, pH 7.4
[3] = target: feline FcRn complex (FcRn-α subunit and β-microglobulin) (feline); experiment: SPR (Biacore), FcRn on SA chip, pH 6

Kd [1]: 6.22 nM | Kd [2]: 840 nM
Molecule: feline IgG1a T403R (antibody)

Kd [1]: 3.61 nM | Kd [2]: 94.8 nM
Molecule: feline IgG1a S434Y/S434F (as printed) (antibody)

Kd [1]: 9.58 nM | Kd [2]: 21.6 nM
B1: feline IgG1a S434G (antibody, part only; not given: Variable domains, not shown: another chain or arm of the molecule)
constant: ASTTAPSVFPLAPSCGTTSGATVALACLVLGYFPEPVTVSWNSGALTSGVHTFPAVLQASGLYSLSSMVTVPSSRWLSDTFTCNVAHPPSNTKVDKTVRKTDHPPGPKPCDCPKCPPPEMLGGPSIFIFPPKPKDTLSISRTPEVTCLVVDLGPDDSDVQITWFVDNTQVYTAKTSPREEQFNSTYRVVSVLPILHQDWLKGKEFKCKVNSKSLPSPIERTISKAKGQPHEPQVYVLPPAQEELSRNKVSVTCLIKSFHPPDIAVEWEITGQPEPENNYRTTPPQLDSDGTYFVYSKLSVDRSHWQRGNTYTCSVSHEALHGHHTQKSLTQSPGK

Kd [1]: 0.771 nM | Kd [2]: 21.6 nM
B2: feline IgG1a S434W (antibody, part only; not given: Variable domains, not shown: another chain or arm of the molecule)
constant: B1 constant with G322W

Kd [1]: 16.4 nM | Kd [2]: 18700 nM
B7: feline IgG1a S428Y (antibody, part only; not given: Variable domains, not shown: another chain or arm of the molecule)
constant: B1 constant with S316Y, G322S

Kd [1]: 7.63 nM | Kd [2]: 1850 nM
B9: feline IgG1a S428Y/L314K (antibody, part only; not given: Variable domains, not shown: another chain or arm of the molecule)
constant: B1 constant with L200K, S316Y, G322S

Kd [1]: 12.4 nM | Kd [2]: 16100 nM
B12: feline IgG1a S254I (antibody, part only; not given: Variable domains, not shown: another chain or arm of the molecule)
constant: B1 constant with S140I, G322S

Kd [1]: 50.3 nM | Kd [2]: 427 nM
B13: feline IgG1a T256F (antibody, part only; not given: Variable domains, not shown: another chain or arm of the molecule)
constant: B1 constant with T142F, G322S

Kd [1]: 8.39 nM | Kd [2]: 989 nM
B16: feline IgG1a S252Y/S434H/Q311W (antibody, part only; not given: variable domains, not shown: another chain or arm of the molecule)
constant: B1 constant with S138Y, Q197W, G322H

Kd [1]: 9.91 nM | Kd [2]: 49800 nM
B17: feline IgG1a S254V (antibody, part only; not given: Variable domains, not shown: another chain or arm of the molecule)
constant: B1 constant with S140V, G322S

Kd [1]: 1.19 nM | Kd [2]: 16.3 nM
B24: feline IgG1a S434R (antibody, part only; not given: Variable domains, not shown: another chain or arm of the molecule)
constant: B1 constant with G322R

Kd [1]: 6.59 nM | Kd [2]: 2190 nM
B25: feline IgG1a S252Y/S434W/Q311W (antibody, part only; not given: Variable domains, not shown: another chain or arm of the molecule)
constant: B1 constant with S138Y, Q197W, G322W

Kd [1]: 27.3 nM | Kd [2]: 5690 nM
B27: feline IgG1a S254P (antibody, part only; not given: Variable domains, not shown: another chain or arm of the molecule)
constant: B1 constant with S140P, G322S

Kd [3]: 0.00402 nM
B28: feline IgG1a mutant ID No. 322: S428Y, D312P, S434Y, D399M, D401R (antibody, part only; not given: variable domains and light chain, not shown: another chain or arm of the molecule)
constant: B1 constant with D198P, D287M, D289R, S316Y, G322Y

Kd [3]: 11.4 nM
B30: feline IgG1a mutant ID No. 315: Q311Y, D312P, L314K (antibody, part only; not given: Variable domains, not shown: another chain or arm of the molecule)
constant: B1 constant with Q197Y, D198P, L200K, G322S

Kd [1]: 10.2 nM | Kd [2]: 8380 nM
B33: feline IgG1a S252Y/S434W (antibody, part only; not given: Variable domains, not shown: another chain or arm of the molecule)
constant: B1 constant with S138Y, G322W

Kd [1]: 15.2 nM | Kd [2]: 6860 nM
B36: feline IgG1a S428Y/D312P/L314K (antibody, part only; not given: Variable domains, not shown: another chain or arm of the molecule)
constant: B1 constant with D198P, L200K, S316Y, G322S

Kd [1]: 0.433 nM | Kd [2]: 14.4 nM
B38: feline IgG1a S434Y (antibody, part only; not given: Variable domains, not shown: another chain or arm of the molecule)
constant: B1 constant with G322Y

Kd [3]: 0.00906 nM
B39: feline IgG1a mutant ID No. 330: S428Y, D312P, S434Y, Q311K, L314K (antibody, part only; not given: Variable domains, not shown: another chain or arm of the molecule; small tags and cut ends)
constant: B1 constant with Q197K, D198P, L200K, S316Y, G322Y

Kd [1]: 0.143 nM | Kd [2]: 4.44 nM
B40: feline IgG1a S252Y/S434R/Q311W (antibody, part only; not given: Variable domains, not shown: another chain or arm of the molecule)
constant: B1 constant with S138Y, Q197W, G322R

Kd [1]: 44 nM | Kd [2]: 2160 nM
B44: feline IgG1a S254C (antibody, part only; not given: Variable domains, not shown: another chain or arm of the molecule)
constant: B1 constant with S140C, G322S

Kd [1]: 2.75 nM | Kd [2]: 46.9 nM
B45: feline IgG1a S428L/S434Y (antibody, part only; not given: Variable domains, not shown: another chain or arm of the molecule; small tags and cut ends)
constant: B1 constant with S316L, G322Y

Kd [3]: 22.7 nM
B47: feline IgG1a mutant ID No. 320: S428Y, D312P, S434P (antibody, part only; not given: Variable domains, not shown: another chain or arm of the molecule)
constant: B1 constant with D198P, S316Y, G322P

Continued, molecule first:

Molecule: feline IgG1a S252H/S428M/D312P (ID No. 215) (antibody)
Kd [1]: 3.24 nM | Kd [2]: 41.2 nM

B3: feline IgG1a S252Y/S428Y/D312P (antibody, part only; not given: variable domains, not shown: another chain or arm of the molecule)
constant: B1 constant with S138Y, D198P, S316Y, G322S
Kd [1]: 15.1 nM | Kd [2]: 4080 nM

B4: feline IgG1a L314K (antibody, part only; not given: variable domains and light chain, not shown: another chain or arm of the molecule)
constant: B1 constant with L200K, G322S
Kd [1]: 8.43 nM | Kd [2]: 41.5 nM

B5: feline IgG1a S252Y/D312P/L314K (antibody, part only; not given: Variable domains, not shown: another chain or arm of the molecule)
constant: B1 constant with S138Y, D198P, L200K, G322S
Kd [1]: 26.7 nM | Kd [2]: 1820 nM

B6: feline IgG1a S252F (antibody, part only; not given: Variable domains, not shown: another chain or arm of the molecule)
constant: B1 constant with S138F, G322S
Kd [1]: 123 nM | Kd [2]: 5960 nM

B8: feline IgG1a Q311Y (antibody, part only; not given: Variable domains, not shown: another chain or arm of the molecule)
constant: B1 constant with Q197Y, G322S
Kd [1]: 5.53 nM | Kd [2]: 41.4 nM

B10: feline IgG1a S252Y/S428Y/L314K (antibody, part only; not given: Variable domains, not shown: another chain or arm of the molecule)
constant: B1 constant with S138Y, L200K, S316Y, G322S
Kd [1]: 7.93 nM | Kd [2]: 23300 nM

B11: feline IgG1a Q311W/L314K (antibody, part only; not given: Variable domains, not shown: another chain or arm of the molecule)
constant: B1 constant with Q197W, L200K, G322S
Kd [1]: 3.47 nM | Kd [2]: 55.8 nM

B14: feline IgG1a D312P (antibody, part only; not given: Variable domains, not shown: another chain or arm of the molecule)
constant: B1 constant with D198P, G322S
Kd [1]: 3.96 nM | Kd [2]: 2960 nM

B15: feline IgG1a S252F/S434W (antibody, part only; not given: Variable domains, not shown: another chain or arm of the molecule)
constant: B1 constant with S138F, G322W
Kd [1]: 6.15 nM | Kd [2]: 1370 nM

B18: feline IgG1a S252Y (antibody, part only; not given: Variable domains, not shown: another chain or arm of the molecule)
constant: B1 constant with S138Y, G322S
Kd [1]: 893 nM | Kd [2]: 12700 nM

B19: feline IgG1a H436Y (antibody, part only; not given: Variable domains, not shown: another chain or arm of the molecule)
constant: B1 constant with G322S, H324Y
Kd [1]: 10.2 nM | Kd [2]: 43.4 nM

B20: feline IgG1a S252R/S428L/S434F (antibody, part only; not given: Variable domains, not shown: another chain or arm of the molecule)
constant: B1 constant with S138R, S316L, G322F
Kd [1]: 6.43 nM | Kd [2]: 774 nM

B21: feline IgG1a S252Y/Q311W/D312P (antibody, part only; not given: Variable domains, not shown: another chain or arm of the molecule)
constant: B1 constant with S138Y, Q197W, D198P, G322S
Kd [1]: 35.2 nM | Kd [2]: 1130 nM

B22: feline IgG1a D312P/S434Y (antibody, part only; not given: Variable domains, not shown: another chain or arm of the molecule)
constant: B1 constant with D198P, G322Y
Kd [1]: 22.6 nM | Kd [2]: 1800 nM

B23: feline IgG1a Q311W/D312P/S434Y (antibody, part only; not given: Variable domains, not shown: another chain or arm of the molecule)
constant: B1 constant with Q197W, D198P, G322Y
Kd [1]: 1.53 nM | Kd [2]: 37.7 nM

B26: feline IgG1a S252R/S434H (antibody, part only; not given: Variable domains, not shown: another chain or arm of the molecule)
constant: B1 constant with S138R, G322H
Kd [1]: 2.21 nM | Kd [2]: 41.3 nM

B29: feline IgG1a A431K (antibody, part only; not given: variable domains and light chain, not shown: another chain or arm of the molecule)
constant: B1 constant with A319K, G322S
Kd [1]: 10.1 nM | Kd [2]: 9.39 nM

B31: feline IgG1a L314K/S434Y (antibody, part only; not given: Variable domains, not shown: another chain or arm of the molecule)
constant: B1 constant with L200K, G322Y
Kd [1]: 244 nM | Kd [2]: 7430 nM

B32: feline IgG1a S252R (antibody, part only; not given: Variable domains, not shown: another chain or arm of the molecule)
constant: B1 constant with S138R, G322S
Kd [1]: 1.48 nM | Kd [2]: 5.06 nM

B34: feline IgG1a S252F/S434Y (antibody, part only; not given: Variable domains, not shown: another chain or arm of the molecule)
constant: B1 constant with S138F, G322Y
Kd [1]: 9.28 nM | Kd [2]: 1470 nM

B35: feline IgG1a S252Y/Q311W/L314K (antibody, part only; not given: Variable domains, not shown: another chain or arm of the molecule)
constant: B1 constant with S138Y, Q197W, L200K, G322S
Kd [1]: 10.8 nM | Kd [2]: 179 nM

B37: feline IgG1a S252Y/S434H (antibody, part only; not given: Variable domains, not shown: another chain or arm of the molecule)
constant: B1 constant with S138Y, G322H
Kd [1]: 0.774 nM | Kd [2]: 11.7 nM

B41: feline IgG1a S252F/S434F (antibody, part only; not given: Variable domains, not shown: another chain or arm of the molecule)
constant: B1 constant with S138F, G322F
Kd [1]: 173 nM | Kd [2]: 2350 nM

B42: feline IgG1a Q311W/D312P (antibody, part only; not given: Variable domains, not shown: another chain or arm of the molecule)
constant: B1 constant with Q197W, D198P, G322S
Kd [1]: 2.76 nM | Kd [2]: 50.3 nM

B43: feline IgG1a S252Y/Q311W (antibody, part only; not given: Variable domains, not shown: another chain or arm of the molecule)
constant: B1 constant with S138Y, Q197W, G322S
Kd [1]: 26.9 nM | Kd [2]: 953 nM

B46: feline IgG1a Q311W (antibody, part only; not given: Variable domains, not shown: another chain or arm of the molecule)
constant: B1 constant with Q197W, G322S
Kd [1]: 4.18 nM | Kd [2]: 207 nM

B48: feline IgG1a S252F/S434H (antibody, part only; not given: Variable domains, not shown: another chain or arm of the molecule)
constant: B1 constant with S138F, G322H
Kd [1]: 1.69 nM | Kd [2]: 18.1 nM

B49: feline IgG1a S252H (antibody, part only; not given: Variable domains, not shown: another chain or arm of the molecule)
constant: B1 constant with S138H, G322S
Kd [1]: 49.9 nM | Kd [2]: 8410 nM
